Read-outs that look alike come from different tables or passages of the source.

Experiment [1] has as its target T1, human IL-12 (human, UniProt P29460 23-328; P29459 23-219).
T1 construct: Recombinant (Peprotech); FLAG-tagged IL-12 in the flow cytometry assays, biotinylated in the IL-12Rβ2 assay; also called hIL-12
T1 sequence 1: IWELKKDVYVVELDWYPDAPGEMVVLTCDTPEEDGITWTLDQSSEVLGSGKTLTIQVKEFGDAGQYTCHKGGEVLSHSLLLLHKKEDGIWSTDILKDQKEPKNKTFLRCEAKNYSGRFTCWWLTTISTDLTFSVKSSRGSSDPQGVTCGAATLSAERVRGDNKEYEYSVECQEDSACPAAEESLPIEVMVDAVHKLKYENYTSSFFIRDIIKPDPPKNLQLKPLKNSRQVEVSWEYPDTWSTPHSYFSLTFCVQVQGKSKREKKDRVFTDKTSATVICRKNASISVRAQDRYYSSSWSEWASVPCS
T1 sequence 2: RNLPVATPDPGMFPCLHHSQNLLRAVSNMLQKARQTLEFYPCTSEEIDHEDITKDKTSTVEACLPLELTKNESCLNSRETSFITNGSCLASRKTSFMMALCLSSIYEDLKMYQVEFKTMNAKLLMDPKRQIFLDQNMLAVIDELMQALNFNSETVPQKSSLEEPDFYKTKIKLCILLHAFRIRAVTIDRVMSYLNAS
As to the kind of experiment: ELISA, coated IL-12. The protocol:
(§1) IL-12 (Peprotech), IL-23 (Ebioscience™), IL-12p40 (Ebioscience™) or IL-12p80 (Peprotech), was diluted to 1 μg/mL in carbonate coating buffer ([…] pH 9.6) and coated onto a 96 well plate (Nunc™, Maxisorp™) overnight at 4° C. The plate was then washed three times with wash buffer (0.01M PBS pH 7.2, 0.05% Tween-20) and then three times with 0.01M PBS pH 7.2. The wells were then blocked by adding 200 μl of blocking buffer (1% w/v BSA in 0.01 M PBS pH 7.2) to each well and incubating the plate at 25° C. for 1 hour. The antibody was diluted in antibody diluent (1% w/v BSA, 0.05% Tween-20 in 0.01M PBS pH 7.2) sufficient to generate a titration curve. The wells were incubated with the antibody for 1 hour at 25° C. The plate was then washed as previously described. Goat anti-human immunoglobulin G (H+L) antibody HRP conjugate (Zymed®) at 1:2000 in antibody diluent was used to detect bound primary antibody. Goat anti-murine immunoglobulin antibody HRP conjugate (Dako) at 1:2000 in antibody diluent was used to detect bound murine antibody. After incubation at 25° C. for 1 hour the plate was washed again as previously described. TMB substrate solution (Zymed®) was added to each well and the colour allowed to develop; the reaction was terminated by adding 1M HCl to the wells. The absorbance of each well was determined at 450 nm (ref. 620 nm).
(An ELISA detects its analyte on a solid surface through an enzyme-linked reagent.)

In experiment [2] the target is T2, human IL-23 (human, UniProt P29460 23-328; Q9NPF7 20-189).
T2 construct: Recombinant (Ebioscience); HIS-tagged in flow cytometry, biotinylated in some assays; also called hIL-23; rhIL-23
T2 sequence 1: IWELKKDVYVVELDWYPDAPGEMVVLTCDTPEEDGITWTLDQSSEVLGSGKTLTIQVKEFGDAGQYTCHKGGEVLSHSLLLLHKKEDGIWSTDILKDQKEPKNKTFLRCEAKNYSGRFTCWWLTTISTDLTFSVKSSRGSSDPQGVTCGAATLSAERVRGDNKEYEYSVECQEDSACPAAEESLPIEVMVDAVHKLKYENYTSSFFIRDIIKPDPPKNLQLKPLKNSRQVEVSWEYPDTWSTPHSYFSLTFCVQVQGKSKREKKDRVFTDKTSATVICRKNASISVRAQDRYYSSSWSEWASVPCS
T2 sequence 2: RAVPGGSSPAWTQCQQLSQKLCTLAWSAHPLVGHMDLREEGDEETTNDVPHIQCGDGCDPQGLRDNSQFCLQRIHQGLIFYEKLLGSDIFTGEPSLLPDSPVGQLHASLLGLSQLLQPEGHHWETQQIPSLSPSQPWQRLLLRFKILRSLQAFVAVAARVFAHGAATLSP
The experiment can be described thus: ELISA, coated IL-23. As for the experimental part: as §1

Experiment [3] has as its target T1, human IL-12. The experiment can be described thus: ELISA, coated IL-12. The method in brief:
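Cytokine at 1 μg/mL in carbonate buffer pH 9.6 was coated overnight at 4° C onto Maxisorp plates and blocked with 1% BSA in PBS for 1 hour at 25° C. Antibody titrations were bound for 1 hour at 25° C, then detected with goat anti-human IgG or anti-murine immunoglobulin HRP (1:2000, 1 hour). TMB was developed and stopped with 1M HCl. The binding result is absorbance at 450 nm (reference 620 nm).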
The source holds these as a separate data set.

The target in experiment [4] is T2, human IL-23. As to the kind of experiment: ELISA, coated IL-23. The protocol:
This cysteine at the start of CDR3 could be oxidized, causing heterogeneity in any resulting antibody product. It could also form complexes by disulphide bond formation. Therefore, each of the other 18 (the exceptions being the original Cys and Trp) amino acids was substituted in this position using gene synthesis, and the antibodies were expressed transiently (Antibodies 5, 6, 7, 8, 9, 10, 11, 12, 13, 14, 15, 16, 17, 18, 19, 20, 21, 22). An ELISA was performed on these antibodies (FIG. 9). Some of the antibodies retained binding activity for both IL-12 and IL-23, others only for one cytokine or the other, while others minimally bound to either cytokine.
as §1
This is another data set of the same source.

B1: Antibody 179 (antibody, human IgG1, kappa)
heavy: not shown
light: DIQMTQSPSSVSASVGDRVTITCRASQSISINLHWYQQKPGKAPKLLIYFASQSISGVPSRFSGSGSGTDFSLTINSLQTEDFATYYCQQSNSFPLTFGGGTKVEIKRTVAAPSVFIFPPSDEQLKSGTASVVCLLNNFYPREAKVQWKVDNALQSGNSQESVTEQDSKDSTYSLSSTLTLSKADYEKHKVYACEVTHQGLSSPVTKSFNRGEC
As to B1, the binding result with human IL-12 [1] and with human IL-23 [2] was “binds” throughout.

B2: Antibody 191 (antibody, human IgG1, kappa, V domains shown)
VH: QVQLVQSGAEVKKPGASVKVSCKASGYTFTDYYLHWVRQAPGQGLEWMGWIDPENGDTEYAPKFQGRVTMTTDTSTSTAYMELRSLRSDDTAVYYCAANKELRYFDVWGQGTMVTVSS
VL: DIQMTQSPSSVSASVGDRVTITCRASQSISINLHWYQQKPGKAPKLLIYFASQSISGVPSRFSGSGSGTDFSLTINSLQTEDFATYYCQQSNSFPLTFGGGTKVEIKR
Take B2: the binding result with human IL-12 [1] and in the experiment with human IL-23 [2] was “binds” in each case.

B3: Antibody 197 (antibody, human IgG1, kappa, V domains shown)
VH: QVQLVQSGAEVKKPGASVKVSCKASGYTFTDYYLHWVRQAPGRGLEWMGWIDPENGDTEYAPKFQGRVTMTTDTSTSTAYMELRSLRSDDTAVYYCAANKELRYFDVWGQGTMVTVSS
VL: DIQMTQSPSSVSASVGDRVTITCRASQSISINLHWYQQKPGKAPKLLIYFASQSISGVPSRFSGSGSGTDFSLTINSLQTEDFATYYCQQSNSFPLTFGGGTKVEIKR
Turning to B3, the binding result with human IL-12 [1] and with human IL-23 [2] was “binds” in each case.

B4: Antibody 196 (antibody, human IgG1, kappa, V domains shown)
VH: QVQLVQSGAEVEKPGASVKVSCKASGYTFTDYYLHWVRQAPGQGLEWMGWIDPENGDTEYAPKFQGGVTMTTDTSTSTAYMELRSLRSDDTAVYYCAANKELRYFDVWGQGTMVTVSS
VL: DIQMTQSPSSVSASVGDRVTITCRASQSISINLHWYQQKPGKAPKLLIYFASQSISGVPSRFSGSGSGTDFSLTINSLQTEDFATYYCQQSNSFPLTFGGGTKVEIKR
B4: the binding result with human IL-12 [1] and with human IL-23 [2] was “binds” each time.

B5: Antibody 5 (antibody, human IgG1, kappa, V domains shown)
VH: EVQLQQSGADLVRSGASIKLSCTASGFNIKDYYMHWVKQRPEQGLEWIGWIDPENGDTEYAPKFQGKATMTADTSSNTAYLQLSSLTSEDTAVYYCNAAKELRYFDVWGAGTTVTVSS
VL: DIVLTQSPATLSVTPGDSVSLSCRASQSISINLHWYQQKSHESPRLLIKFASQSISGIPSRFSGYGSGTDFTLSINSVETEDFGRYFCQQSNSWPLTFGAGTKLELKR
Consider B5, for which the binding result with human IL-12 [3] and with human IL-23 [4] was “binds” each time.

B6: Antibody 8 (antibody, human IgG1, kappa, V domains shown)
VH: EVQLQQSGADLVRSGASIKLSCTASGFNIKDYYMHWVKQRPEQGLEWIGWIDPENGDTEYAPKFQGKATMTADTSSNTAYLQLSSLTSEDTAVYYCNADKELRYFDVWGAGTTVTVSS
VL: DIVLTQSPATLSVTPGDSVSLSCRASQSISINLHWYQQKSHESPRLLIKFASQSISGIPSRFSGYGSGTDFTLSINSVETEDFGRYFCQQSNSWPLTFGAGTKLELKR
Turning to B6, the binding result in the experiment with human IL-12 [3] and with human IL-23 [4] was “binds” throughout.

B7: Antibody 13 (antibody, human IgG1, kappa, V domains shown)
VH: EVQLQQSGADLVRSGASIKLSCTASGFNIKDYYMHWVKQRPEQGLEWIGWIDPENGDTEYAPKFQGKATMTADTSSNTAYLQLSSLTSEDTAVYYCNAIKELRYFDVWGAGTTVTVSS
VL: DIVLTQSPATLSVTPGDSVSLSCRASQSISINLHWYQQKSHESPRLLIKFASQSISGIPSRFSGYGSGTDFTLSINSVETEDFGRYFCQQSNSWPLTFGAGTKLELKR
On to B7, for which the binding result with human IL-12 [3] and with human IL-23 [4] was “binds” in each case.

B8: Antibody 12 (antibody, human IgG1, kappa, V domains shown)
VH: EVQLQQSGADLVRSGASIKLSCTASGFNIKDYYMHWVKQRPEQGLEWIGWIDPENGDTEYAPKFQGKATMTADTSSNTAYLQLSSLTSEDTAVYYCNAHKELRYFDVWGAGTTVTVSS
VL: DIVLTQSPATLSVTPGDSVSLSCRASQSISINLHWYQQKSHESPRLLIKFASQSISGIPSRFSGYGSGTDFTLSINSVETEDFGRYFCQQSNSWPLTFGAGTKLELKR
As for B8, the binding result in the experiment with human IL-12 [3] and with human IL-23 [4] was “binds” throughout.

B9: Antibody 9 (antibody, human IgG1, kappa, V domains shown)
VH: EVQLQQSGADLVRSGASIKLSCTASGFNIKDYYMHWVKQRPEQGLEWIGWIDPENGDTEYAPKFQGKATMTADTSSNTAYLQLSSLTSEDTAVYYCNAEKELRYFDVWGAGTTVTVSS
VL: DIVLTQSPATLSVTPGDSVSLSCRASQSISINLHWYQQKSHESPRLLIKFASQSISGIPSRFSGYGSGTDFTLSINSVETEDFGRYFCQQSNSWPLTFGAGTKLELKR
In the case of B9, the binding result in the experiment with human IL-12 [3] and in the experiment with human IL-23 [4] was “binds” in each case.

B10: Antibody 10 (antibody, human IgG1, kappa, V domains shown)
VH: EVQLQQSGADLVRSGASIKLSCTASGFNIKDYYMHWVKQRPEQGLEWIGWIDPENGDTEYAPKFQGKATMTADTSSNTAYLQLSSLTSEDTAVYYCNAQKELRYFDVWGAGTTVTVSS
VL: DIVLTQSPATLSVTPGDSVSLSCRASQSISINLHWYQQKSHESPRLLIKFASQSISGIPSRFSGYGSGTDFTLSINSVETEDFGRYFCQQSNSWPLTFGAGTKLELKR
Consider B10, for which the binding result in the experiment with human IL-12 [3] and with human IL-23 [4] was “binds” in each case.

B11: Antibody 17 (antibody, human IgG1, kappa, V domains shown)
VH: EVQLQQSGADLVRSGASIKLSCTASGFNIKDYYMHWVKQRPEQGLEWIGWIDPENGDTEYAPKFQGKATMTADTSSNTAYLQLSSLTSEDTAVYYCNAFKELRYFDVWGAGTTVTVSS
VL: DIVLTQSPATLSVTPGDSVSLSCRASQSISINLHWYQQKSHESPRLLIKFASQSISGIPSRFSGYGSGTDFTLSINSVETEDFGRYFCQQSNSWPLTFGAGTKLELKR
Take B11: the binding result with human IL-12 [3] and with human IL-23 [4] was “binds” throughout.

B12: Antibody 18 (antibody, human IgG1, kappa, V domains shown)
VH: EVQLQQSGADLVRSGASIKLSCTASGFNIKDYYMHWVKQRPEQGLEWIGWIDPENGDTEYAPKFQGKATMTADTSSNTAYLQLSSLTSEDTAVYYCNAPKELRYFDVWGAGTTVTVSS
VL: DIVLTQSPATLSVTPGDSVSLSCRASQSISINLHWYQQKSHESPRLLIKFASQSISGIPSRFSGYGSGTDFTLSINSVETEDFGRYFCQQSNSWPLTFGAGTKLELKR
Take B12: the binding result with human IL-12 [3] and in the experiment with human IL-23 [4] was “binds” throughout.

B13: Antibody 11 (antibody, human IgG1, kappa, V domains shown)
VH: EVQLQQSGADLVRSGASIKLSCTASGFNIKDYYMHWVKQRPEQGLEWIGWIDPENGDTEYAPKFQGKATMTADTSSNTAYLQLSSLTSEDTAVYYCNAGKELRYFDVWGAGTTVTVSS
VL: DIVLTQSPATLSVTPGDSVSLSCRASQSISINLHWYQQKSHESPRLLIKFASQSISGIPSRFSGYGSGTDFTLSINSVETEDFGRYFCQQSNSWPLTFGAGTKLELKR
Regarding B13, the binding result with human IL-12 [3] and with human IL-23 [4] was “binds” throughout.

The values above are taken from patent publication US20110262445A1 (CEPHALON AUSTRALIA, published 2011).
